Data reported in paper PMC7959344.

What was measured:
[1] = biological target: recombinant RRV 26–95 gH-FcStrep/gL (rhesus monkey rhadinovirus (RRV) isolate 26–95); assay: ELISA; RRV 26–95 gH-FcStrep/gL coated at 1μg/ml in PBS; Plxdc1 or Plxdc2 ectodomain 2h at room temperature in 10% FBS in PBS; detected by the C-terminal 6XHis Tag; fit: one site specific binding with Hill slope (Prism6)
[2] = biological target: RRV 26–95 gH-V5/gL-Flag complex (rhesus monkey rhadinovirus (RRV) isolate 26–95)

| Substance | EC50 [1] [nM] | infection of SLK cells by RRV-YFP wt after preincubation with 250nM hPlxdc2-FcStrep, relative to preincubation with FcStrep (Fig 2D) (% of control infection) [2] | infection of rhesus monkey fibroblasts (RF) by RRV-YFP wt after preincubation with 250nM hPlxdc2-FcStrep, relative to preincubation with FcStrep (Fig 2D) (% of control infection) [2] |
| --- | --- | --- | --- |
| human Plxdc2 ectodomain (aa 1–453) with a 6XHis Tag (from UniProt Q6UX71-1 31-453) (domain or fragment) | 5.2 | – | – |
| soluble human Plxdc2, ectodomain (amino acids 31–453) fused to IgG1 Fc with a C-terminal tandem Strep-Tag (from UniProt Q6UX71-1 31-453) (Fc fusion) | – | 63.5 | 73.9 |
| human Plxdc1 ectodomain (aa 1–425) with a 6XHis Tag (from UniProt Q8IUK5-1 19-425) (domain or fragment) | 22.2 | – | – |
